In paper PMC4282981 (Journal of immunology (Baltimore, Md. : 1950), 2014):

Target: Endogenous SHP-1 (human (endogenous in YTS), UniProt P29350 1-595)
Experiment: co-IP

Sequence of Endogenous SHP-1 (P29350 whole entry): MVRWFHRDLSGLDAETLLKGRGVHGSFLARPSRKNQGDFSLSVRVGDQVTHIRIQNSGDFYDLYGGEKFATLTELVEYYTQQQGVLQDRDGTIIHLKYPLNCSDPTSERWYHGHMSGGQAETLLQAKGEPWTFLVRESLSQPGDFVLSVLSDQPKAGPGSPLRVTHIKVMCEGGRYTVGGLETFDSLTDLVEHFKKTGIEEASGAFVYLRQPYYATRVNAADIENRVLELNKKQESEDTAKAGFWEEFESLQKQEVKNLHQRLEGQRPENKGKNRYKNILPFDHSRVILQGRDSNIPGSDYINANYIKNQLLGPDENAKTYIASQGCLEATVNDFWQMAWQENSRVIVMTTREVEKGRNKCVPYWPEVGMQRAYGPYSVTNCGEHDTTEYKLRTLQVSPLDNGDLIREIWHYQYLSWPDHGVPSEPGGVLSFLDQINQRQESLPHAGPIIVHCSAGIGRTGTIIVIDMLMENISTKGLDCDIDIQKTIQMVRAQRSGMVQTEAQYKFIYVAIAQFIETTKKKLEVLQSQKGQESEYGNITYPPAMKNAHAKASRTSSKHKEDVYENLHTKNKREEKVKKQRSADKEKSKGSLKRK

B1: KIR2DL1 H36A mutant tagged with Venus at the C-terminus (receptor, UniProt P43626 22-348, looked up)
chain: HEGVHRKPSLLAHPGRLVKSEETVILQCWSDVMFEAFLLHREGMFNDTLRLIGEHHDGVSKANFSISRMTQDLAGTYRCYGSVTHSPYQVSAPSDPLDIVIIGLYEKPSLSAQLGPTVLAGENVTLSCSSRSSYDMYHLSREGEAHERRLPAGPKVNGTFQADFPLGPATHGGTYRCFGSFHDSPYEWSKSSDPLLVSVTGNPSNSWPSPTEPSSKTGNPRHLHILIGTSVVIILFILLFFLLHRWCSNKKNAAVMDQESAGNRTANSEDSDEQDPQEVTYTQLNHCVFTQRKITRPSQRPKTPPTDIIVYTELPNAESRSKVVSCP
- fold association against 2DL1-WT: ~4 fold
